Results on one molecule are retold here after publication PMC10897489 (2024).

This test deals with reported 23mer NSP3 peptide from alphaviruses. As to the kind of experiment: ITC. (Isothermal titration calorimetry measures the heat released or taken up as one component is titrated into another.)

B1: FXR1 1–122 (domain or fragment)
chain: not shown
In the case of B1, the Kd came to 19.4 µM.

The Kd is the constant that tells how readily two partners part at equilibrium. High values mean a looser complex, low ones a tighter complex.
